Among the data in the RNAGym collection of RNA variant scans (doi:10.7554/elife.90254) are self-cleavage values, retold here.

B1: OR4K15 (parent)
chain: GUUAACGGUCAUAGGCCAUGGAAACUAGGAGCACCAUUUCGCUGCCAGUGAAGAAAUGAACAAAGAAAAUCUGGGCCAGGCAGGCAUCAAAAGAAAUAGUCUUGCGCUCAACCAGAAAGUCUGUAAUCAUUUUAAGGGUA

In the series the parent is B1. Put plainly: self-cleavage, relative activity (ratio to wild type); higher = more cleavage; in vitro, sequencing; the parent is a self-cleaving ribozyme.
In the case of GUUAACGGUCAUAGGCCAUGGAAACUAGGAGCACCAUUUCGCUGCCAGUGAAGAAACGAACAAAGAAAAUCUGGGCCAGGCAGGCAUCAAAAGAAAUAGUCUUGCGCUCAACCGGAAAGUCUGUAAUCAUUUUAAGGGUA [U57C A114G], the self-cleavage amounted to 0.12.

Consider GUUAACGGUCAUAGGCCAUGGAAACUAGGAGCACCAUUUCGCUGCCAGUGAAGAAAAGAACAAAGAAAAUCUGGGCCAGGCAGGCAUCAAAAGAAAUAGUCUCGCGCUCAACCAGAAAGUCUGUAAUCAUUUUAAGGGUA [U57A U103C], for which the self-cleavage was 0.22. The figure for GUUAACGGUCAUAGGCCAUGGAAACUAGGAGCACCAUUUCGCUGCCAGUGAAGAAAAGAACAAAGAAAAUCUGGGCCAGGCAGGCAUCAAAAGAAAUAGUCUUGCGCUCAACCAGAAAGUCUGUAAUCACUUUAAGGGUA [U57A U130C] is 0.81; for GUUAACGGUCAUAGGCCAUGGAAACUAGGAGCACCAUUUCGCUGCCAGUGAAGAAACGAACAAAGAAAAUCUGGGCCAGGCAGGCGUCAAAAGAAAUAGUCUUGCGCUCAACCAGAAAGUCUGUAAUCAUUUUAAGGGUA [U57C A86G] it is 0.94.

Take GUUAACGGUCAUAGGCCAUGGAAACUAGGAGCACCAUUUCGCUGCCAGUGAAGAAACGAACAAAGAAAAUCUGGGCCAGGCAGGCAUCAAAAGAGAUAGUCUUGCGCUCAACCAGAAAGUCUGUAAUCAUUUUAAGGGUA [U57C A95G]: the self-cleavage was 1.76.

Take GUUAACGGUCAUAGGCCAUGGAAACUAGGAGCACCAUUUCGCUGCCAGUGAAGAAACGAACAAAGAAAAUCUGGGCCAGGCAGGCAUCAAAAGAUAUAGUCUUGCGCUCAACCAGAAAGUCUGUAAUCAUUUUAAGGGUA [U57C A95U]: the self-cleavage turned out to be 1.28.

With GUUAACGGUCAUAGGCCAUGGAAACUAGGAGCACCAUUUCGCUGCCAGUGAAGAAACGAACAAAGAAAAUCUGGGCCAGGCAGGCAUCAAAAGAAGUAGUCUUGCGCUCAACCAGAAAGUCUGUAAUCAUUUUAAGGGUA [U57C A96G], the self-cleavage is 1.17. For GUUAACGGUCAUAGGCCAUGGAAACUAGGAGCACCAUUUCGCUGCCAGUGAAGAAAAGAACAAAGAAAAUCUGGGCCAGGCAGGCAUCAAAAGAAACAGUCUUGCGCUCAACCAGAAAGUCUGUAAUCAUUUUAAGGGUA [U57A U97C], the self-cleavage is 1.78. The same measure for GUUAACGGUCAUAGGCCAUGGAAACUAGGAGCACCAUUUCGCUGCCAGUGAAGAAACGAACAAAGAAAGUCUGGGCCAGGCAGGCAUCAAAAGAAAUAGUCUUGCGCUCAACCAGAAAGUCUGUAAUCAUUUUAAGGGUA [U57C A69G]: 0.75; for GUUAACGGUCAUAGGCCAUGGAAACUAGGAGCACCAUUUCGCUGCCAGUGAAGAAACGAACAAAGAAAUUCUGGGCCAGGCAGGCAUCAAAAGAAAUAGUCUUGCGCUCAACCAGAAAGUCUGUAAUCAUUUUAAGGGUA [U57C A69U]: 1.63; for GUUAACGGUCAUAGGCCAUGGAAACUAGGAGCACCAUUUCGCUGCCAGUGAAGAAAAGAACAAAGAAAAUCUGGGCCAGGCAGGCAUCAAAAGAAAUAGUCGUGCGCUCAACCAGAAAGUCUGUAAUCAUUUUAAGGGUA [U57A U102G]: 0.16. In the case of GUUAACGGUCAUAGGCCAUGGAAACUAGGAGCACCAUUUCGCUGCCAGUGAAGAAACGAACAAAGGAAAUCUGGGCCAGGCAGGCAUCAAAAGAAAUAGUCUUGCGCUCAACCAGAAAGUCUGUAAUCAUUUUAAGGGUA [U57C A66G], the self-cleavage amounted to 0.31. The figure for GUUAACGGUCAUAGGCCAUGGAAACUAGGAGCACCAUUUCGCUGCCAGUGAAGAAAAGAACAAAGAAAAUCUGGGCCAGGCAGGCAUCAAAAGAAAUAGUCUUGCGCUCAACCAGAAAGUCUGUAAUCAUUUUAAGGGUG [U57A A140G] is 1.3; for GUUAACGGUCAUAGGCCAUGGAAACUAGGAGCACCAUUUCGCUGCCAGUGAAGAAAAGAACAAAGAAAAACUGGGCCAGGCAGGCAUCAAAAGAAAUAGUCUUGCGCUCAACCAGAAAGUCUGUAAUCAUUUUAAGGGUA [U57A U70A] it is 0.62; for GUUAACGGUCAUAGGCCAUGGAAACUAGGAGCACCAUUUCGCUGCCAGUGAAGAAACGAACAGAGAAAAUCUGGGCCAGGCAGGCAUCAAAAGAAAUAGUCUUGCGCUCAACCAGAAAGUCUGUAAUCAUUUUAAGGGUA [U57C A63G] it is 1.05. The figure for GUUAACGGUCAUAGGCCAUGGAAACUAGGAGCACCAUUUCGCUGCCAGUGAAGAAACGAACAAAGAAAAUCUGGGCCAGGCAGGCAUCAAAAGAAAUAGUCUUGCGCUCAACCAGAAAGUCUGUGAUCAUUUUAAGGGUA [U57C A125G] is 0.29; for GUUAACGGUCAUAGGCCAUGGAAACUAGGAGCACCAUUUCGCUGCCAGUGAAGAAAAGAACAAAGAAAAUCUGGGCCAGGCAGGCAUCAAAAGAAAUAGUCUUGCGCUCAACCAGAGAGUCUGUAAUCAUUUUAAGGGUA [U57A A117G] it is 1.69. The figure for GUUAACGGUCAUAGGCCAUGGAAACUAGGAGCACCAUUUCGCUGCCAGUGAAGAAACGAACAAAGAAUAUCUGGGCCAGGCAGGCAUCAAAAGAAAUAGUCUUGCGCUCAACCAGAAAGUCUGUAAUCAUUUUAAGGGUA [U57C A68U] is 2.04; for GUUAACGGUCAUAGGCCAUGGAAACUAGGAGCACCAUUUCGCUGCCAGUGAAGAAAAGAACAAAGAAAAUCUGGGCCAGGCAGGCACCAAAAGAAAUAGUCUUGCGCUCAACCAGAAAGUCUGUAAUCAUUUUAAGGGUA [U57A U87C] it is 0.92; for GUUAACGGUCAUAGGCCAUGGAAACUAGGAGCACCAUUUCGCUGCCAGUGAAGAAACGAACAAAGAAAAUCUGGGCCGGGCAGGCAUCAAAAGAAAUAGUCUUGCGCUCAACCAGAAAGUCUGUAAUCAUUUUAAGGGUA [U57C A78G] it is 0.23. For GUUAACGGUCAUAGGCCAUGGAAACUAGGAGCACCAUUUCGCUGCCAGUGAAGAAACGAACAAAGAAAAUCUGGGCCUGGCAGGCAUCAAAAGAAAUAGUCUUGCGCUCAACCAGAAAGUCUGUAAUCAUUUUAAGGGUA [U57C A78U], the self-cleavage is 0.26.

GUUAACGGUCAUAGGCCAUGGAAACUAGGAGCACCAUUUCGCUGCCAGUGAAGAAACGAACAAAGAAAAUCUGGGCCAGGCAGGCAUCAAGAGAAAUAGUCUUGCGCUCAACCAGAAAGUCUGUAAUCAUUUUAAGGGUA [U57C A91G]: the self-cleavage stood at 0.84. The figure for GUUAACGGUCAUAGGCCAUGGAAACUAGGAGCACCAUUUCGCUGCCAGUGAAGAAACGAACAAAGAAAAUCUGGGCCAGGCAGGCAUCAAAAGAAAUAGUCUUGCGCUCAACCAGUAAGUCUGUAAUCAUUUUAAGGGUA [U57C A116U] is 0.33. As to GUUAACGGUCAUAGGCCAUGGAAACUAGGAGCACCAUUUCGCUGCCAGUGAAGAAACGAACAAAGAAAAUCUGGGCCAGGCAGGCAUCAAAAGAAAUAGUCUUGCGCUCAACCAGGAAGUCUGUAAUCAUUUUAAGGGUA [U57C A116G], the self-cleavage was 0.33.

Regarding GUUAACGGUCAUAGGCCAUGGAAACUAGGAGCACCAUUUCGCUGCCAGUGAAGAAACGAACAAAGAAAAUCUGGGCCAGGCCGGCAUCAAAAGAAAUAGUCUUGCGCUCAACCAGAAAGUCUGUAAUCAUUUUAAGGGUA [U57C A82C], the self-cleavage was determined as 0.23. In the case of GUUAACGGUCAUAGGCCAUGGAAACUAGGAGCACCAUUUCGCUGCCAGUGAAGAAACGAACAAAGAAAAUCUGGGCCAGGCUGGCAUCAAAAGAAAUAGUCUUGCGCUCAACCAGAAAGUCUGUAAUCAUUUUAAGGGUA [U57C A82U], the self-cleavage was 0.21.

In the case of GUUAACGGUCAUAGGCCAUGGAAACUAGGAGCACCAUUUCGCUGCCAGUGAAGAAACGAACAAAGAAAAUCUGGGCCAGGCAGGCAUCAAAAGAAAUAGUCUUGCGCUCGACCAGAAAGUCUGUAAUCAUUUUAAGGGUA [U57C A110G], the self-cleavage is 0.1. In the case of GUUAACGGUCAUAGGCCAUGGAAACUAGGAGCACCAUUUCGCUGCCAGUGAAGAAACGAACAAAGAAAAUCUGGGCCAGGCAGGCAUCGAAAGAAAUAGUCUUGCGCUCAACCAGAAAGUCUGUAAUCAUUUUAAGGGUA [U57C A89G], the self-cleavage came to 0.75. For the variant GUUAACGGUCAUAGGCCAUGGAAACUAGGAGCACCAUUUCGCUGCCAGUGAAGAAAAGAACAAAGAAAAUCUGGGCCAGGCAGGCAUCAAAAGAAAUAGUCUUGCGCUCAACCAGAAAGUCUGUAAUCAUUUUAAGGAUA [U57A G138A], the self-cleavage is 1.33. GUUAACGGUCAUAGGCCAUGGAAACUAGGAGCACCAUUUCGCUGCCAGUGAAGAAACGAACAAAGAAAAUCUGGGCCAGGCAGGCAUCAAAAGAAAUAGUCUUGCGCUCAACCAGAAAGUCUGUAAUCAUUUUAAGGGUA [U57C]: the self-cleavage was 0.86. As to GUUAACGGUCAUAGGCCAUGGAAACUAGGAGCACCAUUUCGCUGCCAGUGAAGAAAAGAACAAAGAAAAUCUGGGCCAGGCAGGCAUCAAAAGAAAUAGUCUUGCGCUCAACCAGAAAGUCUGUGAUCAUUUUAAGGGUA [U57A A125G], the self-cleavage was 0.52.

Take GUUAACGGUCAUAGGCCAUGGAAACUAGGAGCACCAUUUCGCUGCCAGUGAAGAAACGAACAAAGAAAAUCUGGGCCAGGCAGGCAUCAAAAGUAAUAGUCUUGCGCUCAACCAGAAAGUCUGUAAUCAUUUUAAGGGUA [U57C A94U]: the self-cleavage was 1.23. The figure for GUUAACGGUCAUAGGCCAUGGAAACUAGGAGCACCAUUUCGCUGCCAGUGAAGAAACGAACAAAGAAAAUCUGGGCCAGGCAGGCAUCAAAAGAAAUAGUCUUGCGCUCAACCAGAGAGUCUGUAAUCAUUUUAAGGGUA [U57C A117G] is 0.84.

For GUUAACGGUCAUAGGCCAUGGAAACUAGGAGCACCAUUUCGCUGCCAGUGAAGAAACGAACUAAGAAAAUCUGGGCCAGGCAGGCAUCAAAAGAAAUAGUCUUGCGCUCAACCAGAAAGUCUGUAAUCAUUUUAAGGGUA [U57C A62U], the self-cleavage amounted to 2.11. Turning to GUUAACGGUCAUAGGCCAUGGAAACUAGGAGCACCAUUUCGCUGCCAGUGAAGAAAAGAACAAAGAAAAUCUGGGCCAGGCAGGCAUCAAAAGAAAUAGUCUUGCGCUCAACCAGAAAGUCUGUAAUCGUUUUAAGGGUA [U57A A129G], the self-cleavage is 0.9. The same measure for GUUAACGGUCAUAGGCCAUGGAAACUAGGAGCACCAUUUCGCUGCCAGUGAAGAAAAGAACAAAGAAAAUCUGGGCCAGGCAGGCAUCAAAAGAAAUAGUCUUGCGCUCAACCAGAAAGUCCGUAAUCAUUUUAAGGGUA [U57A U122C]: 0.75; for GUUAACGGUCAUAGGCCAUGGAAACUAGGAGCACCAUUUCGCUGCCAGUGAAGAAAAGAACAAAGAAAAUCUGGGCCAGGCAGGCAUCAAAAGAAAUAGUCUUGCGCUCAACCAGAAAGUCUGUAAUCAUUUUAAGGGCA [U57A U139C]: 0.25; for GUUAACGGUCAUAGGCCAUGGAAACUAGGAGCACCAUUUCGCUGCCAGUGAAGAAACGAACAAAGAGAAUCUGGGCCAGGCAGGCAUCAAAAGAAAUAGUCUUGCGCUCAACCAGAAAGUCUGUAAUCAUUUUAAGGGUA [U57C A67G]: 0.83. The same measure for GUUAACGGUCAUAGGCCAUGGAAACUAGGAGCACCAUUUCGCUGCCAGUGAAGAAAAGAACAAAGAAAAUCUGGGCCAGGCAGGCAUCAAAAGAAAUAGUCUUGCGCUCAACCAGAAAGUCUGCAAUCAUUUUAAGGGUA [U57A U124C]: 0.68; for GUUAACGGUCAUAGGCCAUGGAAACUAGGAGCACCAUUUCGCUGCCAGUGAAGAAACGAACAAAGAAAAUCUGGGCCAGGCAGGCAUCAGAAGAAAUAGUCUUGCGCUCAACCAGAAAGUCUGUAAUCAUUUUAAGGGUA [U57C A90G]: 0.97; for GUUAACGGUCAUAGGCCAUGGAAACUAGGAGCACCAUUUCGCUGCCAGUGAAGAAACGAACAAAGAAAAUCUGGGCCAGGCAGGCAUCAUAAGAAAUAGUCUUGCGCUCAACCAGAAAGUCUGUAAUCAUUUUAAGGGUA [U57C A90U]: 1.51.
